Data: a protein production outcome set (Wang et al. 2014)

Experiment: label from the status in PepcDB records

Sequence	protein production
MIFSSPSQKNHPVGGLEEVMAQGTFVQALRKEAALSSTFMKGRSLMLNGAVLSIEDSGSRFSKNVTLEGAVRGSRGDLYKTHVALDMDEHEVIDYDCDCPAAYRYPGMCKHAIATALAYLDASGIEPVEGLRTPVRTFTAAPKQAARPSSAAPAVNPNFPFPAPVPTSPSLMKALSDLSDARMDELAGMRRKLAGTVDPDAPKAVLEPSLVPYYNPLFADRFSWALELRIRCGSVSYVVKDIDGMAAAYVRGGTFSYGKKLTFLHAPEAFDEVSVRLLDLVVATVVYLSDITSSRSASYDFARSGFVAERQLPLSEHDIVYMLDLLRGRTISFEPAWSRGTTTHRSYEVAVELSPVGEDEASAKQPPLLAAKIAPAAGGSYDLRLPADTYCFVAGDAAYLVDTHRARRADAAFAQHAAPFLSRLLPCRTPVHIAAEQVGEFCRMALPVLREYTGLTAPAVLDTVAPEPSFAMAIGVDDGLVTCKITVSYGDWSADLFSLGAPGSPFEERRPGVPPRDEMAEFRVMDTAALYFDFYEGGLAFEERDDESLFHLLTEGLSALSELGEVMLSDRLRQVSVRPAPKLSVRATVKSNLLDVELGASGLSAADLAIYLDSYKRHQTFARLTSGDIIRLDEGARAAFGLAEDLGVDAVDLLDGVSLPASSTLFVDSMLARTPELEADRDAAFRRTVERLDTLGKMDFTVPVSLKATLRGYQVDGYQWLGSLEHLGLGGILADDMGLGKTLQMIAHILARVEAGDAKPTLVVCPASLVYNWTAELERFAPSLDVCAIVGAKAQRRVQIAGADEHNVVITSYDLMRRDIDEYAEQDFARVVLDEAQYIKNPLTQVAHAAKRLPAGVRFALTGTPIENRLSELWSIFDFLMPGLLGSRESFAKRFESPVEHAEGDSAARLQALVSPFVLRRVKEDVVADLPEKIEDTVMAQLTGEQRKLYLANQDRIAQQVQHREVSEFKKDKLKVLAELTKLRQICCDPHLHYEDYKAGSAKLDACMELVHGALDGGHHILLFSQFTGMLDIIGKRLAKEDIGFLKLTGASSKESRAKMVAQFQAGEVPVFLISLKAGGVGLNLTAADVVIHYDPWWNVAAQDQATDRAHRIGQQHTVTVYKLIAKDTIEERIMRMQESKRDLVNSVLGGDGISSALFTREDVLALLGGDGR	failed
MIFYFSGTGNSAWVARQLAEGQNEELLSIAMEIDRNKAYKLKEGEKVGFVFPVYAWGPPKIVLRFIHQLKLDKPGYLFFVCTCGDDTGRTAQIFSSAVTRKGWQCVAGYSVTMPNTYVSLPGFDVDDKDIETQKVQNAVARVRFINEEITSRAQMKQYNCHEGALPFTKSYLLRPLFNAFLMSPKPFHTTEACIGCKKCEKVCPVGNITVTDRPVWGGNCTQCLACYHVCPVHAVEYGKMTGKKGQYKGRLLKDL	failed
MIGDLDISGVFLPTLLVLMGITYGLYLLVHGVLTRLHFYRLVWHRALFNVGLYALLLGAVDSLSRYLMT	failed
MIGDMNELLLKSVEVLPPLPDTVSKLRKYVSEANSNIETMKVAEIISSDPLMTAKLLQLANSPYYGFTREITTINQVITLLGVGNIINIVMADSIRDNFKIDVSPYGLNTQNFLKTCNEEATFIANWLNDEDKKLSHLLVPCAMLLRLGIVIFSNFLIQNHKDKDFLAFLNKNENLALAENEFLGVDHISFLGFLLHRWNFDDVLIESICFVRTPHAAREKVKKSAYALAITDHLFAPHDGSSPFNAKAAVALLKEAKTQGINFDLNNLLSKLPNKAKENLNKED	not failed
MIGFLILLFIFVAGFFIMQMLIYRFAKKNIHKYTKIKWFHMWLHMNMKKGPRLDFFDFVVTVLVCIVWKIWLLPFI	failed
MIGHNSPTRTAPLISVTTLDKVALSRLGRDVAVRNRKSRAVLAYLALSPHGFETRERICGLLWSESDEARARASLRQTVVDLKACLAEIEGVFSGDRLNVTLKPSLVTVDVGEIRHELKAGRIPPILLERQRVAESFLNGLDDIDPSFRNWVLVQRQCLQDEFISCLEAMAKAAADWPALKRAGQALLNLDPTNEIGCRAVMEASARMGDQATALRAYKGLWDLLETEFDSEPSAATQALVSDIKLGTIGATDRGAVTAIAAEAFGSQAQRLQEPAAGVLLFVREFELVSGSVRARNAVQIFRSELVASLVRFRDWAVMEWEGHPPRFTENAYCIEATGFIDGPTLRLSMTLKQLASGRYIWSEQFVIENSQWYQTQQRLIRRIAVALGVSMSSERLVQIASIPDLSLEQFDRWLRAQELIFQWRPESEERAEALFRSIIAESPRFAAAYAGLAGIINSRHLIFPGIGRRRERHAEALTFAKQATQIDPIDSRSQLHLAWSYAMNGIPQQAAISFLLACELNGNDPWTLVSASLGLAYCDDRENARRIATLALQTGLGVSRLQWSYQAGVRFLLGDYAGCVEAAERAADSVSYIGGWKAAALALLGNEKAAHEEADRFLAQLKTTWFGNESPEPGNVGTWLMDSFPIYSPEAVEALRRGLAGAGIVVSHMPLPEPVLSAAPDGVVRDA	failed
